Experimental data taken from the supplement of paper PMC11780869.

Tested on: Bacillus subtilis
Test: cleaved RNA product abundance (RNA/gDNA barcode ratio) relative to median wild-type variant (ratio to wild type); higher = more accumulation of the downstream cleavage product
Conditions: experiment (reporter, strain, medium): exp 8a: truncated aprE reporter, strain BJT201 with 2% xylose (RNase J1 expressed); cleavage site: glnRA (positions -5 to +31 mutated)
Procedure, shortened: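 B. subtilis strains with chromosomally integrated reporter mRNAs (truncated aprE or tetM) holding barcoded, mutagenized RNase Y cleavage-site windows grew in LB at 37°C from OD600 0.0003 to 0.3. Cleaved product abundance is each construct's RNA:gDNA barcode ratio, scaled to the median construct with the unmutated site. It came from sequencing barcodes of gel-selected, reverse-transcribed cleaved RNA and of genomic DNA.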

Going from “CGACATGTCCCGCTTCTTTCATTATTCCGTTAGCAACTGTTTTGCTATATACATTTGCCTTTTAAGAGGAGGAAT” to “CGACATGTCCCGCTTCTTTCATTATTCCGTTAGCAACTGTTTTGCTATATACATTTTCCTTTTAAGAGGAGGAAT”, the “cleaved RNA product abundance” value rises from 0.599 to 0.792.

First: CGACATGTCCCGCTTCTTTCATTATTCCGTTAGCAACTGTTTTGCTATATACCTTTACCTTTTAAGAGGAGGAAT
Second: CGACATGTCCCGCTTCTTTCATTATTCCGTTAGCAACTGTTTTGCTATATACGTTTACCTTTTAAGAGGAGGAAT
The “cleaved RNA product abundance” value of the first is lower: 0.383 for the first, 0.645 for the second.

Going from “CGACATGTCCCGCTTCTTTCATTATTCCGTTAGCAACTGTTTTGCTATATACTTTTACCTTTTAAGAGGAGGAAT” to “CGACATGTCCCGCTTCTTTCATTATTCCGTTAGCAACTGTTTTGCTATATAGATTTAACTTTTAAGAGGAGGAAT”, the “cleaved RNA product abundance” value rises from 0.815 to 0.911.

Compared with “CGACATGTCCCGCTTCTTTCATTATTCCGTTAGCAACTGTTTTGCTATATAGATTTACCTTTTAAGAGGAGGAAT”, “CGACATGTCCCGCTTCTTTCATTATTCCGTTAGCAACTGTTTTGCTATATATATTTACCTTTTAAGAGGAGGAAT” is higher in “cleaved RNA product abundance” value: 1.02 for the first, 1.45 for the second.

Going from “CGACATGTCCCGCTTCTTTCATTATTCCGTTAGCAACTGTTTTGCTATATCCATTTACCTTTTAAGAGGAGGAAT” to “CGACATGTCCCGCTTCTTTCATTATTCCGTTAGCAACTGTTTTGCTATATTCATTTACCTTTTAAGAGGAGGAAT”, the “cleaved RNA product abundance” value rises from 0.359 to 0.669.

First: CGACATGTCCCGCTTCTTTCATTATTCCGTTAGCAACTGTTTTGCTATCTACATTTACCTTTTAAGAGGAGGAAT
Second: CGACATGTCCCGCTTCTTTCATTATTCCGTTAGCAACTGTTTTGCTATGTACATTTACCTTTTAAGAGGAGGAAT
The “cleaved RNA product abundance” value of the first is lower: 0.167 for the first, 0.184 for the second.

Compared with “CGACATGTCCCGCTTCTTTCATTATTCCGTTAGCAACTGTTTTGCTATTTACATTTACCTTTTAAGAGGAGGAAT”, “CGACATGTCCCGCTTCTTTCATTATTCCGTTAGCAACTGTTTTGCTCTATACATTTACCTTTTAAGAGGAGGAAT” is higher in “cleaved RNA product abundance” value: 0.131 for the first, 0.354 for the second.

Going from “CGACATGTCCCGCTTCTTTCATTATTCCGTTAGCAACTGTTTTGCTGTATACATTTACCTTTTAAGAGGAGGAAT” to “CGACATGTCCCGCTTCTTTCATTATTCCGTTAGCAACTGTTTTGCTTTATACATTTACCTTTTAAGAGGAGGAAT”, the “cleaved RNA product abundance” value rises from 0.298 to 0.401.

Compared with “CGACATGTCCCGCTTCTTTCATTATTCCGTTAGCAACTGTTTTGGTATATACATTTACCTTTTAAGAGGAGGAAT”, “CGACATGTCCCGCTTCTTTCATTATTCCGTTAGCAACTGTTTTGTTATATACATTTACCTTTTAAGAGGAGGAAT” is higher in “cleaved RNA product abundance” value: 0.304 for the first, 0.541 for the second.

Compared with “CGACATGTCCCGCTTCTTTCATTATTCCGTTAGCAACTGTTTTTCTATATACATTTACCTTTTAAGAGGAGGAAT”, “CGACATGTCCCGCTTCTTTCATTATTCCGTTAGCAACTTTTTTGCTATATACATTTACCGTTTAAGAGGAGGAAT” is higher in “cleaved RNA product abundance” value: 0.62 for the first, 2.31 for the second.

First: CGACATGTCCCGCTTCTTTCATTATTCCGTTAGCAACTTTTTTGCTATATACATTTACCTTTTAAGAGGAGGAAT
Second: CGACATGTCCCGCTTCTTTCATTATTCCGTTAGCAACTTTTTTGCTATATACTTTTACCTTTTAAGAGGAGGAAT
The “cleaved RNA product abundance” value of the first is higher: 2.24 for the first, 0.558 for the second.

First: CGACATGTCCCGCTTCTTTCATTATTCCGTTAGCAAGTGTTTTGCTATATACATTTACCTTTTAAGAGGAGGAAT
Second: CGACATGTCCCGCTTCTTTCATTATTCCGTTAGCAATTGTTATGGTATATACAATTATCTTTTAAGAGGAGGAAT
The “cleaved RNA product abundance” value of the first is higher: 1.46 for the first, 0.256 for the second.

Compared with “CGACATGTCCCGCTTCTTTCATTATTCCGTTAGCAATTGTTTTGCTATATACATTTACCTTTTAAGAGGAGGAAT”, “CGACATGTCCCGCTTCTTTCATTATTCCGTTAGCACCTGTTTTGCTATATACATTTACCTTTTAAGAGGAGGAAT” is lower in “cleaved RNA product abundance” value: 1.83 for the first, 1.18 for the second.

Compared with “CGACATGTCCCGCTTCTTTCATTATTCCGTTAGCAGCTGTTTTGCTATATACATTTACCTTTTAAGAGGAGGAAT”, “CGACATGTCCCGCTTCTTTCATTATTCCGTTAGCATCTGTTTTGCTATATACATTTACCTTTTAAGAGGAGGAAT” is higher in “cleaved RNA product abundance” value: 1.16 for the first, 1.34 for the second.

Compared with “CGACATGTCCCGCTTCTTTCATTATTCCGTTAGCCACTGTTTTGCTATATACATTTACCTTTTAAGAGGAGGAAT”, “CGACATGTCCCGCTTCTTTCATTATTCCGTTAGCGACTGTTTTGCTATATACATTTACCTTTTAAGAGGAGGAAT” is higher in “cleaved RNA product abundance” value: 0.595 for the first, 0.759 for the second.

First: CGACATGTCCCGCTTCTTTCATTATTCCGTTAGCTACTGTTTTGCTATATACATTTACCTTTTAAGAGGAGGAAT
Second: CGACATGTCCCGCTTCTTTCATTATTCCGTTAGGAACTGTTTTGCTATATACATTTACCTTTTAAGAGGAGGAAT
The “cleaved RNA product abundance” value of the first is higher: 0.764 for the first, 0.44 for the second.

Compared with “CGACATGTCCCGCTTCTTTCATTATTCCGTTAGTAACTGTTTTGCTATATACATTTACCTTTTAAGAGGAGGAAT”, “CGACATGTCCCGCTTCTTTCATTATTCCGTTATCAACTGTTTTGATATATACATTTACCTTTTAAGAGGAGGAAT” is lower in “cleaved RNA product abundance” value: 0.651 for the first, 0.385 for the second.

Compared with “CGACATGTCCCGCTTCTTTCATTATTCCGTTATCAACTGTTTTGCTATACACATTTACCTTTTAAGAGGAGGAAT”, “CGACATGTCCCGCTTCTTTCATTATTCCGTTATCAACTGTTTTGCTATATACATTTACCTTTTAAGAGGAGGAAT” is higher in “cleaved RNA product abundance” value: 0.188 for the first, 0.265 for the second.

Compared with “CGACATGTCCCGCTTCTTTCATTATTCCGTTCGCAACTGTTTTGCTATATACATTTACCTTTTAAGAGGAGGAAT”, “CGACATGTCCCGCTTCTTTCATTATTCCGTTGGCAACTGTTTTGCTATATACATTTACCTTTTAAGAGGAGGAAT” is higher in “cleaved RNA product abundance” value: 0.283 for the first, 0.851 for the second.

Going from “CGACATGTCCCGCTTCTTTCATTATTCCGTTTGCAACTGTTTTGCTATATACATTTACCATTTAAGAGGAGGAAT” to “CGACATGTCCCGCTTCTTTCATTATTCCGTTTGCAACTGTTTTGCTATATACATTTACCTTTTAAGAGGAGGAAT”, the “cleaved RNA product abundance” value rises from 0.356 to 0.543.

Compared with “CGACATGTCCCGCTTCTTTCATTATTCCGTTTTCAACTGTTTTGCTATATACATTTACCTTTTAAGAGGAGGAAT”, “CGACATGTCCCGCTTCTTTCATTATTCCTTAAACAACTGTTTTGTAATATACATTATACCTTTAAGAGGAGGAAT” is lower in “cleaved RNA product abundance” value: 0.361 for the first, 0.242 for the second.

First: CGACATGTCCCGCTTCTTTCATTATTCCTTTACCAACAGTTTTGCTATATACATTTACCTTTTAAGAGGAGGAAT
Second: CGACATGTCCCGCTTCTTTCATTATTCCTTTACCAACTTTTTTGCTATATATATATACCTTTTAAGAGGAGGAAT
The “cleaved RNA product abundance” value of the first is lower: 0.112 for the first, 0.182 for the second.

First: CGACATGTCCCGCTTCTTTCATTATTCCTTTAGCAACTGTTTTGATATATACATTTACCTTTTAAGAGGAGGAAT
Second: CGACATGTCCCGCTTCTTTCATTATTCCTTTAGCAACTGTTTTGCTATATACATTTACCTTTTAAGAGGAGGAAT
The “cleaved RNA product abundance” value of the first is lower: 0.465 for the first, 1.04 for the second.

Compared with “CGACATGTCCCGCTTCTTTCATTATTCGGTTAGCAACTGTTTTGCTATATACATTTACCTTTTAAGAGGAGGAAT”, “CGACATGTCCCGCTTCTTTCATTATTCTGTTAGCAACTGTTTAGCTATATACATTTACCTTTTAAGAGGAGGAAT” is lower in “cleaved RNA product abundance” value: 1.73 for the first, 0.759 for the second.

First: CGACATGTCCCGCTTCTTTCATTATTCTGTTAGCAACTGTTTTGCTATAAACATTTACCTTTTAAGAGGAGGAAT
Second: CGACATGTCCCGCTTCTTTCATTATTCTGTTAGCAACTGTTTTGCTATATACAGTTACCTTTTAAGAGGAGGAAT
The “cleaved RNA product abundance” value of the first is higher: 0.834 for the first, 0.717 for the second.

First: CGACATGTCCCGCTTCTTTCATTATTCTGTTAGCAACTGTTTTGCTATATACATTTACCTTTTAAGAGGAGGAAT
Second: CGACATGTCCCGCTTCTTTCATTATTGCGTTAGCAACTGTTTTGCTATATACATTTACCTTTTAAGAGGAGGAAT
The “cleaved RNA product abundance” value of the first is higher: 1.94 for the first, 1.54 for the second.

“CGACATGTCCCGCTTCTTTCATTATTTCGTTAGCAACTGTTTTGCTATATACATTTACCTTTTAAGAGGAGGAAT” was tested, and the “cleaved RNA product abundance” value was 1.59.
